For one substance, Split Luc bioluminescence, percent of BMAL1-WT and Split Luc bioluminescence, fold of BMAL1-WT results are on record in paper PMC4642984.

The target of test [1] is ELucC-BMAL1 deletion mutant Bd5 (mouse) (UniProt Q9WTL8). Nature of the test: split reporter (BiFC, NanoBiT); Split Luc complementation in living Cos7 cells transfected with ELucN-CK2β and ELucC-BMAL1 (WT or mutant) together with pcDNA, Myc-HA-CRY1, Myc-CRY2 or FLAG-CRY1 (WT or Cd1-4); real-time bioluminescence, averaged peak values.
The target of test [2] is ELucC-BMAL1 deletion mutant Bd4 (mouse) (UniProt Q9WTL8). The test is described as above.
Sequence of ELucC-BMAL1 deletion mutant Bd4 (mouse) (Q9WTL8 other isoform, or with tags, fused parts or gaps, stated change not applied): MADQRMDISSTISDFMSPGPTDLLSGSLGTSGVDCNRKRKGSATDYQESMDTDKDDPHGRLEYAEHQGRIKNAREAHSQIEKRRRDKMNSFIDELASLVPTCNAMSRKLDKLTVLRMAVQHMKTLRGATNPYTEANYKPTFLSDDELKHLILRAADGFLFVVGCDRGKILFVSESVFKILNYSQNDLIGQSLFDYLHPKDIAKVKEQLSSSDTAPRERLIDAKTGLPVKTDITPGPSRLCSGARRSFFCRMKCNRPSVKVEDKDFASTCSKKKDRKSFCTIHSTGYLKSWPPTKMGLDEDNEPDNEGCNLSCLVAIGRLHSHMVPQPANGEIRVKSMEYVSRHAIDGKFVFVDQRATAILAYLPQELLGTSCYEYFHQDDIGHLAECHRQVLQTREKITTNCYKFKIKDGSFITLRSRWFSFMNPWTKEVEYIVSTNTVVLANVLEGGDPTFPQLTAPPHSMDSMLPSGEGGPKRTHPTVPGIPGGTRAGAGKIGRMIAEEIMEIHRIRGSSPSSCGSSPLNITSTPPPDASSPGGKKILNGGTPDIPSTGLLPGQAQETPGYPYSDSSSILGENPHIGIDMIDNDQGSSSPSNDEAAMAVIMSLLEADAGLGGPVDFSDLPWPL

Sequence of ELucN-CK2β (P67870 whole entry): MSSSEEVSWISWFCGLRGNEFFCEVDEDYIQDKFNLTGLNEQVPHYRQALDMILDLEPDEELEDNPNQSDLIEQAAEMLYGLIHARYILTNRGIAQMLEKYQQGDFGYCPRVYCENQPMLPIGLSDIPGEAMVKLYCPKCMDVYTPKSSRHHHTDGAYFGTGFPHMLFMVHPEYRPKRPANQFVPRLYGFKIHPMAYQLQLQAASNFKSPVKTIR
Sequence of ELucC-BMAL1 deletion mutant Bd5 (mouse) (Q9WTL8 other isoform, or with tags, fused parts or gaps, stated change not applied): as the sequence (Q9WTL8 other isoform, or with tags, fused parts or gaps, stated change not applied) above

In turn, “ELucN-CK2β (from UniProt P67870 1-215) (natural protein)” displayed a Split Luc bioluminescence, percent of BMAL1-WT in test [1] of 30%. Besides, in test [2], the Split Luc bioluminescence, fold of BMAL1-WT was 2 fold.
